Laboratory results: US20250075006A1 (SHANDONG SIMCERE BIOPHARMACEUTICAL, published 2025)
Read-outs that look alike come from different tables or passages of the source. One block for each binder: values may come before it.

Legend:
[1] = molecular target: T1, Human GUCY2C ECD (his-tagged human GUCY2C protein extracellular domain fusion protein) (human, UniProt P25092 24-430); experiment: SPR Biacore, antibody on Protein A, antigen injected
T1 construct: also called human GUCY2C-his; human GUCY2C-His
Procedure: (§1) The strength of antibody-antigen binding was assayed with a BIAcore 8K instrument using a Protein A capture method. First, Protein A was immobilized onto a CM4 chip (purchased from GE, BR-1005-34) using an amino coupling method. According to the instruction of the Amine Coupling Kit (purchased from GE, BR100633), NHS and EDC were mixed with HBS-EP+pH 7.4 as a mobile phase to activate the chip for about 600 s; the Protein A was diluted to 50 μg/mL with 10 mM sodium acetate (pH 4.5) and injected for 600 s, and finally, the remaining activated sites were blocked with ethanolamine. Then, the affinity of the antibody for the antigen was assayed using a multi-cycle kinetic method; in each cycle, first, the antibody to be tested was captured using the Protein A chip, and then a single concentration of antigen protein was injected. The association and dissociation processes of the antibody with the antigen protein were recorded, and finally, the chip was regenerated using Glycine pH 1.5, wherein the mobile phase was HBS-EP+(10 mM HEPES, 150 mM NaCl, 3 mM EDTA, 0.05% surfactant P20), the flow rate was 30 μL/min, the regeneration time was 30 s, and the assay temperature was 25° C. Finally, according to a 1:1 binding model, the data were analyzed, and the antibody-antigen binding kinetics parameters, including the association rate constant Ka, the dissociation rate constant Kd, the equilibrium dissociation constant KD, and the maximum binding signal Rmax, were fitted.
The association rate (Ka), dissociation rate (Kd), and binding affinity (KD) of the recombinant antibodies Lab306-huFc, Lab322-huFc, and Lab323-huFc with the human GUCY2C protein are shown in Table 5. The positive control antibody has good binding activity at the protein level, but has very weak binding at the cellular level. Lab322-huFc and Lab323-huFc, although weak in affinity, bind well to the cellular level, presumably due to differences in the conformation of the proteins and proteins at the viable cellular level.

[2] = molecular target: T1, Human GUCY2C ECD (his-tagged human …); experiment: as above; remark: listed apart in the source
Procedure: as §1
After the finally obtained various humanized antibodies were expressed and purified, the affinities of the humanized antibodies for the human and monkey GUCY2C proteins were separately assayed according to the method in Example 4.6.

[3] = molecular target: T2, Mouse GUCY2C ECD (his-tagged mouse GUCY2C protein extracellular domain fusion protein) (mouse, UniProt Q3UWA6 20-433); experiment: ELISA, plate coated with mouse GUCY2C-his, OD450
T2 construct: also called murine GUCY2C-his; murine GUCY2C-His
T2 sequence: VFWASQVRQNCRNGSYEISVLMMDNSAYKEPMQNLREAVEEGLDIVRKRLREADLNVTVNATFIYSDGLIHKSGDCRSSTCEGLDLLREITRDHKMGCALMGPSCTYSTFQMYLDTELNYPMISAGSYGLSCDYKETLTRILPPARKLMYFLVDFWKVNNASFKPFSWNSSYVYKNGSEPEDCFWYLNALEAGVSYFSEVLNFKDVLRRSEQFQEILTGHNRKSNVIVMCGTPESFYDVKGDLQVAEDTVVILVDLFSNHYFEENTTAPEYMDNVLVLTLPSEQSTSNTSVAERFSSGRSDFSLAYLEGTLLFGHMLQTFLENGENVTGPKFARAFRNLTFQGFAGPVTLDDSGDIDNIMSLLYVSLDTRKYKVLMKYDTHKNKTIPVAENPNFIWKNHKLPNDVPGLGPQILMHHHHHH
Procedure: A human GUCY2C-his protein was diluted with PBS to a final concentration of 2 μg/mL and then added to a 96-well ELISA plate at 50 μL/well. The plate was sealed with a plastic film and incubated at 4° C. overnight. The next day, the plate was washed 2 times with PBST, and a blocking buffer [PBS+2% (w/w) BSA] was added for blocking at room temperature for 2 h. The blocking buffer was discarded, and the recombinant antibody and positive and negative control antibody with a starting concentration of 100 nM serially diluted by 3 folds were added at 50 μL/well. After incubation at 37° C. for 1 h, the plate was washed 3 times with PBST. A horseradish peroxidase (HRP)—labeled secondary antibody (purchased from Merck, Cat. No. AP113P) was added for incubation at 37° C. for 1 h, and the plate was washed 5 times with PBST. A TMB substrate was added at 50 μL/well for incubation at room temperature for 10 min, and then a stop solution (1.0 M HCl) was added at 50 μL/well. The OD450 nm values were read by an ELISA plate reader (Multimode Plate Reader, EnSight, purchased from Perkin Elmer).
The monkey GUCY2C-his and murine GUCY2C-his proteins were subjected to ELISA and data analysis according to the method described in Example 4.2. The recombinant antibodies Lab306-huFc, Lab322-huFc, and Lab323-huFc have a relatively good binding activity with the monkey GUCY2C-his protein. […]

[4] = molecular target: T3, Cyno GUCY2C ECD (his-tagged cynomolgus monkey GUCY2C protein extracellular domain fusion protein) (cynomolgus monkey, UniProt P25092 24-430 (human entry)); experiment: ELISA, plate coated with monkey GUCY2C-his, OD450
T3 construct: also called monkey GUCY2C-his; monkey GUCY2C-His
T3 chain: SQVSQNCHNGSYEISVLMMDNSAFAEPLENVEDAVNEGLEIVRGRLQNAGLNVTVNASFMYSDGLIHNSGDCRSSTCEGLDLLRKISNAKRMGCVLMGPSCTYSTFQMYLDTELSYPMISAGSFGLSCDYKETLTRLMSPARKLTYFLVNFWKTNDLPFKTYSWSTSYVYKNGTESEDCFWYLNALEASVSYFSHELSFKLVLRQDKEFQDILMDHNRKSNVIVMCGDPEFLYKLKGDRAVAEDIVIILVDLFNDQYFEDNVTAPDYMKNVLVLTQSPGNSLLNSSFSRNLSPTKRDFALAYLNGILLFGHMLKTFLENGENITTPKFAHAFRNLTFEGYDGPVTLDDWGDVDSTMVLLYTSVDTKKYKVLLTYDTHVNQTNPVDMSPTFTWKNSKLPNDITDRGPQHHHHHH

T1 sequence (P25092 other isoform, or with tags, fused parts or gaps): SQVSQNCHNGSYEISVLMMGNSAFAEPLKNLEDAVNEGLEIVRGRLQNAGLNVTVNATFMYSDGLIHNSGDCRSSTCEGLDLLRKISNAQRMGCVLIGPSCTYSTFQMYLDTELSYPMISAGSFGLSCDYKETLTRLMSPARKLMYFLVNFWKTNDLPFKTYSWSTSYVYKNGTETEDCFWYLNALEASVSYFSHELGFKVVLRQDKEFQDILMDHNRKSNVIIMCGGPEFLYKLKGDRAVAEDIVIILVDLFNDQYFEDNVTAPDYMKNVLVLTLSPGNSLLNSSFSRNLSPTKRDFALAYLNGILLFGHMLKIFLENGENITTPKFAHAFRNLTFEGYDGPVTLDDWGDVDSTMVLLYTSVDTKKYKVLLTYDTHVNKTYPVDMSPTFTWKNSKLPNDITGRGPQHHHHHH

- Kd [1]: 2.19 nM
- koff [1]: 0.00028 s⁻¹
- kon [1]: 128000 M⁻¹ s⁻¹
- Kd [2]: 4.05 nM
- koff [2]: 0.000565 s⁻¹
- kon [2]: 140000 M⁻¹ s⁻¹
- binding result [3]: no binding (tested: 100 nM)
- EC50 (read off the curve) [4]: ~0.03 nM
B1: 5F9-hIgG1 (antibody, V domains shown)
VH: QVQLQQWGAGLLKPSETLSLTCAVFGGSFSGYYWSWIRQPPGKGLEWIGEINHRGNTNDNPSLKSRVTISVDTSKNQFALKLSSVTAADTAVYYCARERGYTYGNFDHWGQGTLVTVSS
VL: EIVMTQSPATLSVSPGERATLSCRASQSVSRNLAWYQQKPGQAPRLLIYGASTRATGIPARFSGSGSGTEFTLTIGSLQSEDFAVYYCQQYKTWPRTFGQGTNVEIKR
notes: also called positive control antibody

- Kd [1]: 1.61 nM
- koff [1]: 0.000235 s⁻¹
- kon [1]: 146000 M⁻¹ s⁻¹
- Kd [2]: 1.63 nM
- koff [2]: 0.000258 s⁻¹
- kon [2]: 158000 M⁻¹ s⁻¹
- EC50 (read off the curve) [3]: ~0.05 nM
- EC50 (read off the curve) [4]: ~0.05 nM
B2: PF1608-hIgG1 (antibody, V domains shown)
VH: EVQLVESGGGLVQPGGSLRLSCAASGFTFSSYWMHWVRQAPGKGLEWIGEIKPSNELTNVHEKFKDRFTISVDKAKNSAYLQMNSLRAEDTAVYYCTRTITTTEGYWFFDVWGQGTLVTVSS
VL: DIQLTQSPSSLSASVGDRVTITCRASESVDYYGSSLLQWYQQKPGKAPKLLIYAASKLASGVPSRFSGSGSGTDFTLTISSLQPEDFATYYCQQTRKAYTFGQGTKLEIKR
notes: also called PF1608-hlgG1; positive control antibody
